The labels stand for the following.
B1: N^ε1-[(4S)-4-carboxy-4-[[(4S)-4-carboxy-4-(19-carboxynonadecanoylamino)butanoyl]amino]butanoyl]-[Arg17,Pro21,Pro27,Pro31,Pro34,Arg35]-h-amylin (peptide)
peptide: K([γGlu-γGlu-C20 diacid])CNTATCATQRLANFLRHSSPNFGAIPSSTPVGPRTY-NH2
modifications: disulfide 2-7; N-terminus assumed
SMILES: CC[C@H](C)[C@H](NC(=O)[C@H](C)NC(=O)CNC(=O)[C@H](Cc1ccccc1)NC(=O)[C@H](CC(N)=O)NC(=O)[C@@H]1CCCN1C(=O)[C@H](CO)NC(=O)[C@H](CO)NC(=O)[C@H](Cc1c[nH]cn1)NC(=O)[C@H](CCCNC(=N)N)NC(=O)[C@H](CC(C)C)NC(=O)[C@H](Cc1ccccc1)NC(=O)[C@H](CC(N)=O)NC(=O)[C@H](C)NC(=O)[C@H](CC(C)C)NC(=O)[C@H](CCCNC(=N)N)NC(=O)[C@H](CCC(N)=O)NC(=O)[C@@H](NC(=O)[C@H](C)NC(=O)[C@@H]1CSSC[C@H](NC(=O)[C@@H](N)CCCCNC(=O)CC[C@H](NC(=O)CC[C@H](NC(=O)CCCCCCCCCCCCCCCCCCC(=O)O)C(=O)O)C(=O)O)C(=O)N[C@@H](CC(N)=O)C(=O)N[C@@H]([C@@H](C)O)C(=O)N[C@@H](C)C(=O)N[C@@H]([C@@H](C)O)C(=O)N1)[C@@H](C)O)C(=O)N1CCC[C@H]1C(=O)N[C@@H](CO)C(=O)N[C@@H](CO)C(=O)N[C@H](C(=O)N1CCC[C@H]1C(=O)N[C@H](C(=O)NCC(=O)N1CCC[C@H]1C(=O)N[C@@H](CCCNC(=N)N)C(=O)N[C@H](C(=O)N[C@@H](Cc1ccc(O)cc1)C(N)=O)[C@@H](C)O)C(C)C)[C@@H](C)O
notes: Synthetic acylated analogue of human amylin
B2: N^ε1-[(4S)-4-carboxy-4-[[(4S)-4-carboxy-4-(19-carboxynonadecanoylamino)butanoyl]amino]butanoyl]-[Asp14,Arg17,Pro21,Pro27,Pro34,Glu35]-h-amylin (peptide)
peptide: K([γGlu-γGlu-C20 diacid])CNTATCATQRLADFLRHSSPNFGAIPSSTNVGPETY-NH2
modifications: disulfide 2-7
notes: as for B1
B3: N^ε1-[(4S)-4-carboxy-4-[[(4S)-4-carboxy-4-(19-carboxynonadecanoylamino)butanoyl]amino]butanoyl]-[Asp14,Arg17,Pro21,Pro27,Pro34,Arg35]-h-amylin (peptide)
peptide: K([γGlu-γGlu-C20 diacid])CNTATCATQRLADFLRHSSPNFGAIPSSTNVGPRTY-NH2
modifications: disulfide 2-7
notes: Synthetic acylated analogue of human amylin; also called compound 130
B4: N^ε1-[(4S)-4-carboxy-4-[[(4S)-4-carboxy-4-(19-carboxynonadecanoylamino)butanoyl]amino]butanoyl]-[Glu14,Arg17,Pro21,Pro27,Arg34,Glu35]-h-amylin (peptide)
peptide: K([γGlu-γGlu-C20 diacid])CNTATCATQRLAEFLRHSSPNFGAIPSSTNVGRETY-NH2
modifications: disulfide 2-7; N-terminus assumed
SMILES: CC[C@H](C)[C@H](NC(=O)[C@H](C)NC(=O)CNC(=O)[C@H](Cc1ccccc1)NC(=O)[C@H](CC(N)=O)NC(=O)[C@@H]1CCCN1C(=O)[C@H](CO)NC(=O)[C@H](CO)NC(=O)[C@H](Cc1c[nH]cn1)NC(=O)[C@H](CCCNC(=N)N)NC(=O)[C@H](CC(C)C)NC(=O)[C@H](Cc1ccccc1)NC(=O)[C@H](CCC(=O)O)NC(=O)[C@H](C)NC(=O)[C@H](CC(C)C)NC(=O)[C@H](CCCNC(=N)N)NC(=O)[C@H](CCC(N)=O)NC(=O)[C@@H](NC(=O)[C@H](C)NC(=O)[C@@H]1CSSC[C@H](NC(=O)[C@@H](N)CCCCNC(=O)CC[C@H](NC(=O)CC[C@H](NC(=O)CCCCCCCCCCCCCCCCCCC(=O)O)C(=O)O)C(=O)O)C(=O)N[C@@H](CC(N)=O)C(=O)N[C@@H]([C@@H](C)O)C(=O)N[C@@H](C)C(=O)N[C@@H]([C@@H](C)O)C(=O)N1)[C@@H](C)O)C(=O)N1CCC[C@H]1C(=O)N[C@@H](CO)C(=O)N[C@@H](CO)C(=O)N[C@H](C(=O)N[C@@H](CC(N)=O)C(=O)N[C@H](C(=O)NCC(=O)N[C@@H](CCCNC(=N)N)C(=O)N[C@@H](CCC(=O)O)C(=O)N[C@H](C(=O)N[C@@H](Cc1ccc(O)cc1)C(N)=O)[C@@H](C)O)C(C)C)[C@@H](C)O
notes: as for B1
B5: N^ε1-[(4S)-4-carboxy-4-[[(4S)-4-carboxy-4-(19-carboxynonadecanoylamino)butanoyl]amino]butanoyl]-[Glu14,Arg17,Pro21,Pro27,Pro34,Arg35]-h-amylin (peptide)
peptide: K([γGlu-γGlu-C20 diacid])CNTATCATQRLAEFLRHSSPNFGAIPSSTNVGPRTY-NH2
modifications: disulfide 2-7; N-terminus assumed
SMILES: CC[C@H](C)[C@H](NC(=O)[C@H](C)NC(=O)CNC(=O)[C@H](Cc1ccccc1)NC(=O)[C@H](CC(N)=O)NC(=O)[C@@H]1CCCN1C(=O)[C@H](CO)NC(=O)[C@H](CO)NC(=O)[C@H](Cc1c[nH]cn1)NC(=O)[C@H](CCCNC(=N)N)NC(=O)[C@H](CC(C)C)NC(=O)[C@H](Cc1ccccc1)NC(=O)[C@H](CCC(=O)O)NC(=O)[C@H](C)NC(=O)[C@H](CC(C)C)NC(=O)[C@H](CCCNC(=N)N)NC(=O)[C@H](CCC(N)=O)NC(=O)[C@@H](NC(=O)[C@H](C)NC(=O)[C@@H]1CSSC[C@H](NC(=O)[C@@H](N)CCCCNC(=O)CC[C@H](NC(=O)CC[C@H](NC(=O)CCCCCCCCCCCCCCCCCCC(=O)O)C(=O)O)C(=O)O)C(=O)N[C@@H](CC(N)=O)C(=O)N[C@@H]([C@@H](C)O)C(=O)N[C@@H](C)C(=O)N[C@@H]([C@@H](C)O)C(=O)N1)[C@@H](C)O)C(=O)N1CCC[C@H]1C(=O)N[C@@H](CO)C(=O)N[C@@H](CO)C(=O)N[C@H](C(=O)N[C@@H](CC(N)=O)C(=O)N[C@H](C(=O)NCC(=O)N1CCC[C@H]1C(=O)N[C@@H](CCCNC(=N)N)C(=O)N[C@H](C(=O)N[C@@H](Cc1ccc(O)cc1)C(N)=O)[C@@H](C)O)C(C)C)[C@@H](C)O
notes: Synthetic acylated analogue of human amylin; also called compound 110
B6: N^ε1-[(4S)-4-carboxy-4-[[(4S)-4-carboxy-4-(19-carboxynonadecanoylamino)butanoyl]amino]butanoyl]-[Glu14,Arg17,Pro21,Pro27,His34,Glu35]-h-amylin (peptide)
peptide: K([γGlu-γGlu-C20 diacid])CNTATCATQRLAEFLRHSSPNFGAIPSSTNVGHETY-NH2
modifications: disulfide 2-7; N-terminus assumed
SMILES: CC[C@H](C)[C@H](NC(=O)[C@H](C)NC(=O)CNC(=O)[C@H](Cc1ccccc1)NC(=O)[C@H](CC(N)=O)NC(=O)[C@@H]1CCCN1C(=O)[C@H](CO)NC(=O)[C@H](CO)NC(=O)[C@H](Cc1c[nH]cn1)NC(=O)[C@H](CCCNC(=N)N)NC(=O)[C@H](CC(C)C)NC(=O)[C@H](Cc1ccccc1)NC(=O)[C@H](CCC(=O)O)NC(=O)[C@H](C)NC(=O)[C@H](CC(C)C)NC(=O)[C@H](CCCNC(=N)N)NC(=O)[C@H](CCC(N)=O)NC(=O)[C@@H](NC(=O)[C@H](C)NC(=O)[C@@H]1CSSC[C@H](NC(=O)[C@@H](N)CCCCNC(=O)CC[C@H](NC(=O)CC[C@H](NC(=O)CCCCCCCCCCCCCCCCCCC(=O)O)C(=O)O)C(=O)O)C(=O)N[C@@H](CC(N)=O)C(=O)N[C@@H]([C@@H](C)O)C(=O)N[C@@H](C)C(=O)N[C@@H]([C@@H](C)O)C(=O)N1)[C@@H](C)O)C(=O)N1CCC[C@H]1C(=O)N[C@@H](CO)C(=O)N[C@@H](CO)C(=O)N[C@H](C(=O)N[C@@H](CC(N)=O)C(=O)N[C@H](C(=O)NCC(=O)N[C@@H](Cc1c[nH]cn1)C(=O)N[C@@H](CCC(=O)O)C(=O)N[C@H](C(=O)N[C@@H](Cc1ccc(O)cc1)C(N)=O)[C@@H](C)O)C(C)C)[C@@H](C)O
notes: as for B1

Numbered stars: 1 amine (or outer) side, 2 acyl side, 3 side chain; on linkers, the order of the positions; unused ones are H or OH. Bridge positions count the residues as written; N and C are the ends. Side chains are listed from the residue outwards. Ends that are not written are not given here. * marks the point of attachment. C20 diacid = O=C(O)CCCCCCCCCCCCCCCCCCC(=O)*; γGlu = O=C(O)[C@H](CCC(=O)[*:2])N[*:1]

The first assay deals with T1, rat amylin receptor (rat calcitonin receptor + rat RAMP 3) (rat, UniProt P32214 25-516; Q9JJ73 23-147).
T1 construct: whole, on cells; Membranes of transiently transfected BHK tk'ts 13 cells; also called rAmylin-R; rat amylin 3(a) receptor
T1 sequence (looked up) 1: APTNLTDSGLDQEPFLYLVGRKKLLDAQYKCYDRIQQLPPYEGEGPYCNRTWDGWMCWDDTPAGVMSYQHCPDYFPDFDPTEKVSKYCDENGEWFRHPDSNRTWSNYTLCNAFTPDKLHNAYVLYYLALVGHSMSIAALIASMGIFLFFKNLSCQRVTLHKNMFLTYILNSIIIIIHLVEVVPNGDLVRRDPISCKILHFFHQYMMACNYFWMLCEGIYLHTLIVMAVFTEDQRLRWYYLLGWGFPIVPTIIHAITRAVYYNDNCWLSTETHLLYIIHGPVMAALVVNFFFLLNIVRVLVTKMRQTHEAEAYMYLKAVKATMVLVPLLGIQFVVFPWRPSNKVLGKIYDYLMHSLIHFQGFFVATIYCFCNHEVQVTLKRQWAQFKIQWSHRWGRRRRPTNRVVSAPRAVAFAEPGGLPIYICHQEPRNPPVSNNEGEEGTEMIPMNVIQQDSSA
T1 sequence (looked up) 2: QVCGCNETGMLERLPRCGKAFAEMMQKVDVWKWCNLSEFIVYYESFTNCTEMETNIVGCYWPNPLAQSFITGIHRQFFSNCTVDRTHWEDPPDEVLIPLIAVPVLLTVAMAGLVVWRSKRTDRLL
In words: SPA competition with 125I-rat amylin on membranes of BHK tk'ts 13 cells with rat calcitonin receptor + rat RAMP3 (Assay VI).
Regarding B1, the concentration for half-maximal inhibition (IC50) was 0.381 nM.

Turning to B2, the half-inhibitory concentration (IC50) was found to be 0.324 nM.

On to B3, for which the concentration for half-maximal inhibition (IC50) was 0.93 nM.

Regarding B4, the half-maximal inhibitory concentration (IC50) came out at 2.86 nM.

As to B5, the IC50 amounted to 0.339 nM.

In the case of B6, the IC50 stood at 3.14 nM.

In a further assay the target is T2, rat calcitonin receptor (rat, UniProt P32214 25-516).
T2 construct: whole, on cells; Membranes of transiently transfected BHK tk'ts 13 cells; also called rCTR; rat calcitonin (a) receptor
T2 sequence (looked up): T1 sequence (looked up) 1
In words: ratio of IC50 on rat calcitonin receptor to IC50 on rat amylin receptor (reference m40).
For B1, the “Ratio rCT/rAmylin binding” value turned out to be 137.

Regarding B2, the “Ratio rCT/rAmylin binding” value is 98.5.

Turning to B3, the “Ratio rCT/rAmylin binding” value was determined as 240.

In the case of B4, the “Ratio rCT/rAmylin binding” value was determined as 158.

As for B5, the “Ratio rCT/rAmylin binding” value was determined as 113.

With B6, the “Ratio rCT/rAmylin binding” value was found to be 159.

Another assay concerns the target T2, rat calcitonin receptor. In words: SPA competition with 125I-calcitonin on membranes of BHK tk'ts 13 cells with rat calcitonin receptor (Assay VIII).
B1: the IC50 was found to be 52.4 nM.

Take B2: the 50% inhibitory concentration (IC50) is 31.9 nM.

B3: the half-maximal inhibitory concentration (IC50) was 223 nM.

In the case of B4, the concentration for half-maximal inhibition (IC50) was 452 nM.

As for B5, the 50% inhibitory concentration (IC50) amounted to 38.3 nM.

For B6, the IC50 was found to be 498 nM.

Another assay has as its target T3, human calcitonin receptor (human, UniProt P30988 25-474).
T3 construct: whole, on cells; Membranes of stably transfected cells; also called hCTR; hCT
T3 sequence (looked up): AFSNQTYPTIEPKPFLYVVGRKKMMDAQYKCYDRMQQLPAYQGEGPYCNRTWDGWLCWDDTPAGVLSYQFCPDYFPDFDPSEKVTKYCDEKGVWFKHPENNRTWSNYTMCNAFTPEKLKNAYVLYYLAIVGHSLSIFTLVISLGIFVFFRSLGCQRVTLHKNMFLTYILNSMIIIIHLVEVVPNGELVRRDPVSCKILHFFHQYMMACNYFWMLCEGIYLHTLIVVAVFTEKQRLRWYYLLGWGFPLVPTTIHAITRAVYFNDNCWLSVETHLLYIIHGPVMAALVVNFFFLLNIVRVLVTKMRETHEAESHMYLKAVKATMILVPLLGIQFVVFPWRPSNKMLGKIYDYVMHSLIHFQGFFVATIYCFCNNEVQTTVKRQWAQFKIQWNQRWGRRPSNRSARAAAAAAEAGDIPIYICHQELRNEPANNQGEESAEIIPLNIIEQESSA
Description: ratio of IC50 on human calcitonin receptor to IC50 on human amylin receptor (reference m42), SPA competition. The gist of the method: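 Scintillation proximity competition binding on cell membranes at 35 ng/μL with SPA beads, in 50 mM Hepes pH 7.4, 1 mM CaCl2, 5 mM MgCl₂, 0.1% OA, 0.02% Tween20. Incubated 120 min at 25° C with shaking. IC₅₀ from one-site competition fit.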
Consider B1, for which the “Ratio hCT/hAmylin binding” value was 48.6.

With B2, the “Ratio hCT/hAmylin binding” value was determined as 49.8.

Consider B3, for which the “Ratio hCT/hAmylin binding” value is 280.

Regarding B4, the “Ratio hCT/hAmylin binding” value came out at 14.7.

As to B5, the “Ratio hCT/hAmylin binding” value was 53.6.

Regarding B6, the “Ratio hCT/hAmylin binding” value was 29.1.

Usually IC50 stands for the concentration at which inhibition is half-maximal.

The values are drawn from patent US20140087995A1 (published 2014).
